Test results reported in US20120093810A1 (EVEC, published 2012).

Biological target: T1, GST-fused HCMV-AD1 (AD1 region of HCMV glycoprotein gB) (human cytomegalovirus, AD169 strain, UniProt F5HB53 485-651)
T1 construct: also called solid-phased AD1; AD1 antigen; not shown: glutathione S-transferase (GST) fusion partner
Experiment: ELISA on solid-phased AD1 (5 µg/mL)

T1 sequence (F5HB53 485-651): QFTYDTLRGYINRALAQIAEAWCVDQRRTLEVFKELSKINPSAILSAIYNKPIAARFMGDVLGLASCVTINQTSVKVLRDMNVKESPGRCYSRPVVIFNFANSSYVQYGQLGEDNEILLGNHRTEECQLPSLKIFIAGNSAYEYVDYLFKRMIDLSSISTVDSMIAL

Row | Binder | binding result
1 | EV2038 CDR-H3 variant P125A (antibody, V domains shown, original EV2038 L-chain) VH: QVQLQQWGAGLLKPSETLSLTCAVYGGSFSGYYWGWIRQPPGKGLEWIGEINHSGSANSNPSLKSRVTMSVDTSKNQFSLKVSSVTAADTAVYFCARVTRDLEWIAGDYYMDVWGKGTTVTVSS VL: QSVLTQPPSASGTPGQRVSISCSGSLSNIGTNYVYWYQQLPGTAPKLLIFKNNQRPSGVPDRFSGSKSGTSASLAISGLRSEDEADYYCAAWDDSLNGYVFGTGTKVTVLG | no binding (tested: 1 µg/mL, dilution series)
2 | EV2038 CDR-H3 variant P125E (antibody, V domains shown, original EV2038 L-chain) VH: QVQLQQWGAGLLKPSETLSLTCAVYGGSFSGYYWGWIRQPPGKGLEWIGEINHSGSANSNPSLKSRVTMSVDTSKNQFSLKVSSVTAADTAVYFCARVTRDLEWIEGDYYMDVWGKGTTVTVSS VL: QSVLTQPPSASGTPGQRVSISCSGSLSNIGTNYVYWYQQLPGTAPKLLIFKNNQRPSGVPDRFSGSKSGTSASLAISGLRSEDEADYYCAAWDDSLNGYVFGTGTKVTVLG | no binding (tested: 1 µg/mL, dilution series)
3 | EV2038 CDR-H3 variant P125N (antibody, V domains shown, original EV2038 L-chain) VH: QVQLQQWGAGLLKPSETLSLTCAVYGGSFSGYYWGWIRQPPGKGLEWIGEINHSGSANSNPSLKSRVTMSVDTSKNQFSLKVSSVTAADTAVYFCARVTRDLEWINGDYYMDVWGKGTTVTVSS VL: QSVLTQPPSASGTPGQRVSISCSGSLSNIGTNYVYWYQQLPGTAPKLLIFKNNQRPSGVPDRFSGSKSGTSASLAISGLRSEDEADYYCAAWDDSLNGYVFGTGTKVTVLG | no binding (tested: 1 µg/mL, dilution series)
4 | EV2038 CDR-H3 variant P125F (antibody, V domains shown, original EV2038 L-chain) VH: QVQLQQWGAGLLKPSETLSLTCAVYGGSFSGYYWGWIRQPPGKGLEWIGEINHSGSANSNPSLKSRVTMSVDTSKNQFSLKVSSVTAADTAVYFCARVTRDLEWIFGDYYMDVWGKGTTVTVSS VL: QSVLTQPPSASGTPGQRVSISCSGSLSNIGTNYVYWYQQLPGTAPKLLIFKNNQRPSGVPDRFSGSKSGTSASLAISGLRSEDEADYYCAAWDDSLNGYVFGTGTKVTVLG | no binding (tested: 1 µg/mL, dilution series)
5 | EV2038 CDR-H3 variant P125C (antibody, V domains shown, original EV2038 L-chain) VH: QVQLQQWGAGLLKPSETLSLTCAVYGGSFSGYYWGWIRQPPGKGLEWIGEINHSGSANSNPSLKSRVTMSVDTSKNQFSLKVSSVTAADTAVYFCARVTRDLEWICGDYYMDVWGKGTTVTVSS VL: QSVLTQPPSASGTPGQRVSISCSGSLSNIGTNYVYWYQQLPGTAPKLLIFKNNQRPSGVPDRFSGSKSGTSASLAISGLRSEDEADYYCAAWDDSLNGYVFGTGTKVTVLG | no binding (tested: 1 µg/mL, dilution series)
6 | EV2038 CDR-H3 variant P125W (antibody, V domains shown, original EV2038 L-chain) VH: QVQLQQWGAGLLKPSETLSLTCAVYGGSFSGYYWGWIRQPPGKGLEWIGEINHSGSANSNPSLKSRVTMSVDTSKNQFSLKVSSVTAADTAVYFCARVTRDLEWIWGDYYMDVWGKGTTVTVSS VL: QSVLTQPPSASGTPGQRVSISCSGSLSNIGTNYVYWYQQLPGTAPKLLIFKNNQRPSGVPDRFSGSKSGTSASLAISGLRSEDEADYYCAAWDDSLNGYVFGTGTKVTVLG | no binding (tested: 1 µg/mL, dilution series)
7 | EV2038 CDR-H3 variant P125L (antibody, V domains shown, original EV2038 L-chain) VH: QVQLQQWGAGLLKPSETLSLTCAVYGGSFSGYYWGWIRQPPGKGLEWIGEINHSGSANSNPSLKSRVTMSVDTSKNQFSLKVSSVTAADTAVYFCARVTRDLEWILGDYYMDVWGKGTTVTVSS VL: QSVLTQPPSASGTPGQRVSISCSGSLSNIGTNYVYWYQQLPGTAPKLLIFKNNQRPSGVPDRFSGSKSGTSASLAISGLRSEDEADYYCAAWDDSLNGYVFGTGTKVTVLG | no binding (tested: 1 µg/mL, dilution series)
8 | EV2038 CDR-H3 variant P125R (antibody, V domains shown, original EV2038 L-chain) VH: QVQLQQWGAGLLKPSETLSLTCAVYGGSFSGYYWGWIRQPPGKGLEWIGEINHSGSANSNPSLKSRVTMSVDTSKNQFSLKVSSVTAADTAVYFCARVTRDLEWIRGDYYMDVWGKGTTVTVSS VL: QSVLTQPPSASGTPGQRVSISCSGSLSNIGTNYVYWYQQLPGTAPKLLIFKNNQRPSGVPDRFSGSKSGTSASLAISGLRSEDEADYYCAAWDDSLNGYVFGTGTKVTVLG | no binding (tested: 1 µg/mL, dilution series)
9 | EV2038 CDR-H3 variant P125T (antibody, V domains shown, original EV2038 L-chain) VH: QVQLQQWGAGLLKPSETLSLTCAVYGGSFSGYYWGWIRQPPGKGLEWIGEINHSGSANSNPSLKSRVTMSVDTSKNQFSLKVSSVTAADTAVYFCARVTRDLEWITGDYYMDVWGKGTTVTVSS VL: QSVLTQPPSASGTPGQRVSISCSGSLSNIGTNYVYWYQQLPGTAPKLLIFKNNQRPSGVPDRFSGSKSGTSASLAISGLRSEDEADYYCAAWDDSLNGYVFGTGTKVTVLG | no binding (tested: 1 µg/mL, dilution series)
10 | EV2038 CDR-H3 variant P125M (antibody, V domains shown, original EV2038 L-chain) VH: QVQLQQWGAGLLKPSETLSLTCAVYGGSFSGYYWGWIRQPPGKGLEWIGEINHSGSANSNPSLKSRVTMSVDTSKNQFSLKVSSVTAADTAVYFCARVTRDLEWIMGDYYMDVWGKGTTVTVSS VL: QSVLTQPPSASGTPGQRVSISCSGSLSNIGTNYVYWYQQLPGTAPKLLIFKNNQRPSGVPDRFSGSKSGTSASLAISGLRSEDEADYYCAAWDDSLNGYVFGTGTKVTVLG | no binding (tested: 1 µg/mL, dilution series)
11 | EV2038 CDR-H3 variant P125V (antibody, V domains shown, original EV2038 L-chain) VH: QVQLQQWGAGLLKPSETLSLTCAVYGGSFSGYYWGWIRQPPGKGLEWIGEINHSGSANSNPSLKSRVTMSVDTSKNQFSLKVSSVTAADTAVYFCARVTRDLEWIVGDYYMDVWGKGTTVTVSS VL: QSVLTQPPSASGTPGQRVSISCSGSLSNIGTNYVYWYQQLPGTAPKLLIFKNNQRPSGVPDRFSGSKSGTSASLAISGLRSEDEADYYCAAWDDSLNGYVFGTGTKVTVLG | no binding (tested: 1 µg/mL, dilution series)
12 | EV2038 CDR-H3 variant P125S (antibody, V domains shown, original EV2038 L-chain) VH: QVQLQQWGAGLLKPSETLSLTCAVYGGSFSGYYWGWIRQPPGKGLEWIGEINHSGSANSNPSLKSRVTMSVDTSKNQFSLKVSSVTAADTAVYFCARVTRDLEWISGDYYMDVWGKGTTVTVSS VL: QSVLTQPPSASGTPGQRVSISCSGSLSNIGTNYVYWYQQLPGTAPKLLIFKNNQRPSGVPDRFSGSKSGTSASLAISGLRSEDEADYYCAAWDDSLNGYVFGTGTKVTVLG | no binding (tested: 1 µg/mL, dilution series)
13 | EV2038 CDR-H3 variant P125I (antibody, V domains shown, original EV2038 L-chain) VH: QVQLQQWGAGLLKPSETLSLTCAVYGGSFSGYYWGWIRQPPGKGLEWIGEINHSGSANSNPSLKSRVTMSVDTSKNQFSLKVSSVTAADTAVYFCARVTRDLEWIIGDYYMDVWGKGTTVTVSS VL: QSVLTQPPSASGTPGQRVSISCSGSLSNIGTNYVYWYQQLPGTAPKLLIFKNNQRPSGVPDRFSGSKSGTSASLAISGLRSEDEADYYCAAWDDSLNGYVFGTGTKVTVLG | no binding (tested: 1 µg/mL, dilution series)
14 | EV2038 CDR-H3 variant P125K (antibody, V domains shown, original EV2038 L-chain) VH: QVQLQQWGAGLLKPSETLSLTCAVYGGSFSGYYWGWIRQPPGKGLEWIGEINHSGSANSNPSLKSRVTMSVDTSKNQFSLKVSSVTAADTAVYFCARVTRDLEWIKGDYYMDVWGKGTTVTVSS VL: QSVLTQPPSASGTPGQRVSISCSGSLSNIGTNYVYWYQQLPGTAPKLLIFKNNQRPSGVPDRFSGSKSGTSASLAISGLRSEDEADYYCAAWDDSLNGYVFGTGTKVTVLG | no binding (tested: 1 µg/mL, dilution series)
15 | EV2038 CDR-H3 variant P125Y (antibody, V domains shown, original EV2038 L-chain) VH: QVQLQQWGAGLLKPSETLSLTCAVYGGSFSGYYWGWIRQPPGKGLEWIGEINHSGSANSNPSLKSRVTMSVDTSKNQFSLKVSSVTAADTAVYFCARVTRDLEWIYGDYYMDVWGKGTTVTVSS VL: QSVLTQPPSASGTPGQRVSISCSGSLSNIGTNYVYWYQQLPGTAPKLLIFKNNQRPSGVPDRFSGSKSGTSASLAISGLRSEDEADYYCAAWDDSLNGYVFGTGTKVTVLG | no binding (tested: 1 µg/mL, dilution series)
16 | EV2038 CDR-H3 variant P125H (antibody, V domains shown, original EV2038 L-chain) VH: QVQLQQWGAGLLKPSETLSLTCAVYGGSFSGYYWGWIRQPPGKGLEWIGEINHSGSANSNPSLKSRVTMSVDTSKNQFSLKVSSVTAADTAVYFCARVTRDLEWIHGDYYMDVWGKGTTVTVSS VL: QSVLTQPPSASGTPGQRVSISCSGSLSNIGTNYVYWYQQLPGTAPKLLIFKNNQRPSGVPDRFSGSKSGTSASLAISGLRSEDEADYYCAAWDDSLNGYVFGTGTKVTVLG | no binding (tested: 1 µg/mL, dilution series)
17 | EV2038 CDR-H3 variant P125Q (antibody, V domains shown, original EV2038 L-chain) VH: QVQLQQWGAGLLKPSETLSLTCAVYGGSFSGYYWGWIRQPPGKGLEWIGEINHSGSANSNPSLKSRVTMSVDTSKNQFSLKVSSVTAADTAVYFCARVTRDLEWIQGDYYMDVWGKGTTVTVSS VL: QSVLTQPPSASGTPGQRVSISCSGSLSNIGTNYVYWYQQLPGTAPKLLIFKNNQRPSGVPDRFSGSKSGTSASLAISGLRSEDEADYYCAAWDDSLNGYVFGTGTKVTVLG | no binding (tested: 1 µg/mL, dilution series)
18 | EV2038 CDR-H3 variant P125G (antibody, V domains shown, original EV2038 L-chain) VH: QVQLQQWGAGLLKPSETLSLTCAVYGGSFSGYYWGWIRQPPGKGLEWIGEINHSGSANSNPSLKSRVTMSVDTSKNQFSLKVSSVTAADTAVYFCARVTRDLEWIGGDYYMDVWGKGTTVTVSS VL: QSVLTQPPSASGTPGQRVSISCSGSLSNIGTNYVYWYQQLPGTAPKLLIFKNNQRPSGVPDRFSGSKSGTSASLAISGLRSEDEADYYCAAWDDSLNGYVFGTGTKVTVLG | no binding (tested: 1 µg/mL, dilution series)
19 | EV2038 CDR-H3 variant P125D (antibody, V domains shown, original EV2038 L-chain) VH: QVQLQQWGAGLLKPSETLSLTCAVYGGSFSGYYWGWIRQPPGKGLEWIGEINHSGSANSNPSLKSRVTMSVDTSKNQFSLKVSSVTAADTAVYFCARVTRDLEWIDGDYYMDVWGKGTTVTVSS VL: QSVLTQPPSASGTPGQRVSISCSGSLSNIGTNYVYWYQQLPGTAPKLLIFKNNQRPSGVPDRFSGSKSGTSASLAISGLRSEDEADYYCAAWDDSLNGYVFGTGTKVTVLG | no binding (tested: 1 µg/mL, dilution series)
